Reference: PMC7386920, “Evolution of a plant gene cluster in Solanaceae and emergence of metabolic diversity” (eLife, 2020)

What was measured:
Assay in all cases: purified protein
Settings in all cases: fatty acid varied 0-500 uM, 5 mM ATP, 0.5 mM CoA, 10 mM MgCl2, 1 mM NADH, pH 7.5, 30 C
purified protein [1] = substrate: CCCCCCCC(=O)O
purified protein [2] = substrate: CC(C)CCCCCCC(=O)O; type: biochemical, Solanum lycopersicum
purified protein [3] = substrate: CCCCCCC/C=C/C(=O)O; type: biochemical, Solanum lycopersicum
purified protein [4] = substrate: CCCCCCCCCC(=O)O; type: biochemical, Solanum lycopersicum
purified protein [5] = substrate: CCCCCCCCCCCC(=O)O; type: biochemical, Solanum lycopersicum
purified protein [6] = substrate: CCCCCC(=O)O; type: biochemical, Solanum lycopersicum

B1: Sl-AACS1 (Solanum lycopersicum) (protein)
chain: MNKFFKTSNIALRFFNGSVQLPAPTHRVRQLCQLAGSIESTDESRKLLEGVVTSPANYVPLTPISYLERAADVFGDRTSVVFGSSVKYTWEETHSRCLKLASALIQLGISRGDVVATLAPNVPAMQELHFAVPMAGAVLCTLNTRLDSSMVAYLLKHSETKMIFVDQQFLQIAQQALSLLSKDKTIKPPILILIPESNDSSPPVSNIHEYENLLSSGSSNFTIRWPKSEFDPISINYTSGTTSSPKGVVYNHRGAYLNSISAFLCHGMALMPTYLWTLPMFHCNGWCMNWGVAALGGTNVCLRHVSAKDIFESISVNKVTHMSAAPIVLSMMANASPNDRKPLLHKVEIMTGGSPPPPQILSKMEQLGFGVSHGYGLTETYSGATTCLWKPEWDSLPLEERAALKSRQGVKVLCIERVDVRDPETMENVPADGKSIGEIVCRGNTVMSGYLKDVKSTEEAFKGGWFHTGDVAVKHPDGYIEIKDRLKDIIISGGENISTLEVEGVLHSHPAVVEAAVVARPDDHWGQTPCAFVKLKEGSEEITSDEIIKYCRDHLPHYMVPRAVVFQDLPTTSTGKVQKFILREKAKALASLFNTDRKV
notes: full-length ORF in pET28b, His-tagged (tag removal not mentioned), E. coli BL21 Rosetta, Ni-NTA purified
Km (purified protein [1]): 145.9 ± 10.4 µM
kcat (purified protein [1]): 0.22 ± 0.0067 s⁻¹
Km (purified protein [2]): 82.1 ± 10.3 µM
kcat (purified protein [2]): 0.227 ± 0.01 s⁻¹
Km (purified protein [3]): 36.4 ± 4.5 µM
kcat (purified protein [3]): 0.0983 ± 0.0033 s⁻¹
Km (purified protein [4]): 71.8 ± 9.6 µM
kcat (purified protein [4]): 0.0933 ± 0.0033 s⁻¹
Km (purified protein [5]): 68.1 ± 15.8 µM
kcat (purified protein [5]): 0.07 ± 0.005 s⁻¹
Km (purified protein [6]): 214.8 ± 40 µM
kcat (purified protein [6]): 0.23 ± 0.02 s⁻¹
